B1: Geranylgeranyl pyrophosphate synthase BTS1 (Saccharomyces cerevisiae S288c), Q12051 (protein)
chain: MEAKIDELINNDPVWSSQNESLISKPYNHILLKPGKNFRLNLIVQINRVMNLPKDQLAIVSQIVELLHNSSLLIDDIEDNAPLRRGQTTSHLIFGVPSTINTANYMYFRAMQLVSQLTTKEPLYHNLITIFNEELINLHRGQGLDIYWRDFLPEIIPTQEMYLNMVMNKTGGLFRLTLRLMEALSPSSHHGHSLVPFINLLGIIYQIRDDYLNLKDFQMSSEKGFAEDITEGKLSFPIVHALNFTKTKGQTEQHNEILRILLLRTSDKDIKLKLIQILEFDTNSLAYTKNFINQLVNMIKNDNENKYLPDLASHSDTATNLHDELLYIIDHLSEL
B2: Geranylgeranyl pyrophosphate synthase (Homo sapiens), O95749 (protein)
chain: MEKTQETVQRILLEPYKYLLQLPGKQVRTKLSQAFNHWLKVPEDKLQIIIEVTEMLHNASLLIDDIEDNSKLRRGFPVAHSIYGIPSVINSANYVYFLGLEKVLTLDHPDAVKLFTRQLLELHQGQGLDIYWRDNYTCPTEEEYKAMVLQKTGGLFGLAVGLMQLFSDYKEDLKPLLNTLGLFFQIRDDYANLHSKEYSENKSFCEDLTEGKFSFPTIHAIWSRPESTQVQNILRQRTENIDIKKYCVHYLEDVGSFEYTRNTLKELEAKAYKQIDARGGNPELVALVKHLSKMFKEENE

How the values were obtained:
[1] = substrate: CC(C)=CCC/C(C)=C/CC/C(C)=C/COP(=O)(O)OP(=O)(O)O; test: Activity at Saccharomyces cerevisiae GGPPS
[2] = substrate: CC(C)=CCC/C(C)=C/CC/C(C)=C/COP(=O)(O)OP(=O)(O)O; test: Activity at human GGPPS

| Protein | Km [1] | Km [2] |
| --- | --- | --- |
| B1 | 3.2 µM | – |
| B2 | – | 0.71 µM |
